B1: 1D2 (ligand)
4-1BBL variant: ACPWAVSGARASPGSAASPRLREGPELSPDDPAGLLDLRQGMFAQLVAQNVLLIDGPLSWYEDPGLAGVSLTGGLSYKEDTKELVVAKAGVYYVFFQLELRRVVAGTGSGSVSLALHLQPLRSAAGAAALALTVDLPPASSEARNSAFGFQGRLLHLSAGQRLGVHLHTEARARHALQLTQGATVLGLFRVTPEIPAGLPSPRSE
notes: also called 4-1BBL variant 1D2 (phagemid clone, bacterial supernatant)
B2: 8E2 (ligand)
4-1BBL variant: ACPWAVSGARASPGSAASPRLREGPELSPDDPAGLLDLRQGMFAQLVAQNVLLIDGPLSWYPDPGLAGVSLTGGLSYKEDTKELVVAKAGVYYVFFQLELRRVVAFEGSGSVSLALHLQPLRSAAGAAALALTVDLPPASSEARNSAFGFQGRLLHLSAGQRLGVHLHTEARARHSWQLTQGATVLGLFRVTPEIPAGLPSPRSE
notes: also called 4-1BBL variant 8E2 (phagemid clone, bacterial supernatant)
B3: 4E10 (ligand)
4-1BBL variant: ACPWAVSGARASPGSAASPRLREGPELSPDDPAGLLDLRQGMFAQLVAQNVLLIDGPLSWYPDPGLAGVSLTGGLSYKEDTKELVVAKAGVYYVFFQLELRRVVAREGSGSVSLALHLQPLRSAAGAAALALTVDLPPASSEARNSAFGFQGRLLHLSAGQRLGVHLHTEARARHAMQLTQGATVLGLFRVTPEIPAGLPSPRSE
notes: also called 4-1BBL variant 4E10 (phagemid clone, bacterial supernatant)
B4: 4C2 (ligand)
4-1BBL variant: ACPWAVSGARASPGSAASPRLREGPELSPDDPAGLLDLRQGMFAQLVAQNVLLIDGPLSWYPDPGLAGVSLTGGLSYKEDTKELVVAKAGVYYVFFQLELRRVVAGRGSGSVSLALHLQPLRSAAGAAALALTVDLPPASSEARNSAFGFQGRLLHLSAGQRLGVHLHTEARARHAWQFTQGATVLGLFRVTPEIPAGLPSPRSE
notes: also called 4-1BBL variant 4C2 (phagemid clone, bacterial supernatant)
B5: 5D9 (ligand)
4-1BBL variant: ACPWAVSGARASPGSAASPRLREGPELSPDDPAGLLDLRQGMFAQLVAQNVLLIDGPLSFYSDPGLAGVSLTGGLSYKEDTKELVVAKAGVYYVFFQLELRRVVAGTGSGSVSLALHLQPLRSAAGAAALALTVDLPPASSEARNSAFGFQGRLLHLSAGQRLGVHLHTEARARHAWQMTQGATVLGLFRVTPEIPAGLPSPRSE
notes: also called 4-1BBL variant 5D9 (phagemid clone, bacterial supernatant)
B6: 8B10 (ligand)
4-1BBL variant: ACPWAVSGARASPGSAASPRLREGPELSPDDPAGLLDLRQGMFAQLVAQNVLLIDGPLSWYTDPGLAGVSLTGGLSYKEDTKELVVAKAGVYYVFFQLELRRVVAGMGSGSVSLALHLQPLRSAAGAAALALTVDLPPASSEARNSAFGFQGRLLHLSAGQRLGVHLHTEARARHSWQLTQGATVLGLFRVTPEIPAGLPSPRSE
notes: also called 4-1BBL variant 8B10 (phagemid clone, bacterial supernatant)

Assays:
[1] = molecular target: T1, 4-1BB (coated on ELISA plate) (UniProt Q07011 24-186, limits assumed); experiment: ELISA on coated 4-1BB, supernatant after 45 °C 30 min, OD450
Method: (§1) After centrifugation, culture supernatant was collected for determination of expression and binding activity of the 4-1BBL variants. To determine expression of the 4-1BBL variants, a 96-well plate (flat bottom) was coated with 2 μg/ml anti-His tag antibody overnight. The pre-coated plate was then blocked with 5% milk in PBS at room temperature (RT) for 1 hour. After blocking, 30 μl of bacterial supernatant was added to each well of the plate, and the plate was incubated for 1 hour at RT. After the incubation, anti-c-myc-HRP was added, and the expression level of 4-1BBL variants can be determined by measuring OD450 in a plate reader. To determine binding activity of the 4-1BBL variants, a 96-well plate (flat bottom) was coated with 0.5 μg/ml of 4-1BB overnight. The pre-coated plate was then blocked with 5% milk in PBS at RT for 1 hour. After blocking, 30μ of bacterial supernatant was added to each well of the plate, and the plate was incubated for 1 hour at RT. After the incubation, anti-c-myc-HRP was added, and the 4-1BB-binding activity of 4-1BBL variants can be determined by measuring OD450 in a plate reader.

[2] = molecular target: T1, 4-1BB (coated on ELISA plate); experiment: ELISA on coated 4-1BB, supernatant, OD450
Method: as §1

[3] = molecular target: T1, 4-1BB (coated on ELISA plate); experiment: ELISA, binding/expression ratio relative to WT
Method: as §1
(§2) The 4-1BB-binding activity was measured using the same methods described above. With respect to 4-1BB-mediated NF-κB reporter activity, a 96-well plate (flat bottom) was coated with 5 μg/ml anti-c-myc antibody at 4° C. overnight. The induced 4-1BBL variant supernatants were added to the pre-coated plate, and the plate was incubated at 37° C. for 2 hours. The above steps were repeated for six times. Afterwards, 1×10⁵/well of transfected NF-κB Jurkat cells expressing 4-1BB was added to the plate, which was then incubated for 5 hours at 37° C. After the incubation, the luminance signal was detected to determine the 4-1BB reporter activity.

[4] = molecular target: T1, 4-1BB (coated on ELISA plate); experiment: ELISA, binding OD450 / expression OD450
Method: as §1, §2

[5] = molecular target: T1, 4-1BB (coated on ELISA plate); experiment: ELISA, binding OD450 / expression OD450, after 45 °C 30 min
Method: as §1

[6] = molecular target: 4-1BB on transfected NF-κB Jurkat cells (UniProt Q07011 24-255, limits assumed); experiment: cell-based or functional assay
Chain of 4-1BB on transfected NF-κB Jurkat cells (Q07011 24-255 limits assumed): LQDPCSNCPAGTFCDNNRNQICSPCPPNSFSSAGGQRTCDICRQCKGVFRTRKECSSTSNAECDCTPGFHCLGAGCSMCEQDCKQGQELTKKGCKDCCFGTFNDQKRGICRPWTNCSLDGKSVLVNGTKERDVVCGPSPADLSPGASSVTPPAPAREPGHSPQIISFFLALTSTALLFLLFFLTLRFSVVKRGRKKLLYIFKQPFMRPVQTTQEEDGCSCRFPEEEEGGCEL

[7] = molecular target: T1, 4-1BB (coated on ELISA plate); experiment: ELISA, binding OD450 / expression OD450; remark: listed apart in the source
Method: as §1

[8] = molecular target: T1, 4-1BB (coated on ELISA plate); experiment: ELISA on coated 4-1BB, supernatant
Method: as §1, §2

| Binder | Binding (45 °C) [1] | Binding (25 °C) [2] | Binding (vs wt) [3] | Binding/Expression ratio [4] | Binding / Expression ratio (45degrees) [5] | Reporter (RLU) [6] | Reporter (vs wt) [6] | Reporter/Expression ratio [6] | Binding / Expression ratio (25 degrees) [7] | Binding (OD450) [8] |
| --- | --- | --- | --- | --- | --- | --- | --- | --- | --- | --- |
| B1 | 0.803 | 1.16 | 0.38 | 0.66 | 0.553 | 4390 RLU | 0.75 | 2150 | 0.525 | 1.35 OD450 |
| B2 | 0.309 | 0.231 | 0.12 | 0.21 | 0.388 | 4880 RLU | 0.9 | 2570 | 0.188 | 0.392 OD450 |
| B3 | 1.25 | 1.36 | 0.6 | 1.04 | 0.885 | 7360 RLU | 2.74 | 7830 | 0.679 | 0.975 OD450 |
| B4 | 0.823 | 0.657 | 0.38 | 0.67 | 0.506 | 3420 RLU | 0.71 | 2040 | 0.431 | 1.12 OD450 |
| B5 | 0.205 | 1.43 | 1.01 | 1.75 | 0.537 | 4780 RLU | 1.48 | 4240 | 1.53 | 1.98 OD450 |
| B6 | 0.182 | 1.5 | 1.52 | 2.65 | 0.636 | 8820 RLU | 4.66 | 13300 | 1.79 | 1.75 OD450 |

Source: patent publication US20260193315A1 (FBD BIOLOGICS, published 2026)
